The values that follow come from PMC2699158.

Some results are limits rather than exact numbers.

In this assay the target is taxol-stabilized microtubules. Description: co-sedimentation.

Broadly, the Kd is the free concentration of one partner at which half of the binding sites on the other are occupied at equilibrium, for simple one-to-one binding. High values mean lower affinity, low ones higher affinity.

With “6×His-CLASP2(340–650), wild type (from UniProt O75122-3 340-650) (domain or fragment)”, the Kd was < 0.3 µM.
